Among the data in patent US11767343B2, “Peptide probe for recognition of G-quadruplex and use thereof in detection of G-quadruplex in cell” (Changzhi Medical College, priority 2020, dated 2023) are Kd values, retold here.

One may read the Kd as the free concentration of one partner at which half of the binding sites on the other are occupied at equilibrium, for simple one-to-one binding.

For the experiment, the target named is TB-1. The experiment is described as follows: ELISA binding of G4P to immobilized biotinylated oligonucleotide. The note with it: G4, Bulge, read-out: Kd (nM) ± SD.

B1: G4P: Polypeptide probe: two RHAU23 G4-binding domains, linker of three GTGSGA hexapeptides, C-terminal 3xFLAG tag, N-terminal HIS tag; SEQ ID NO: 4 (protein)
chain: MGSSHHHHHHSSGLVPRGSHMHPGHLKGREIGMWYAKKQGQKNKGTGSGAGTGSGAGTGSGAHPGHLKGREIGMWYAKKQGQKNKGTGSGADYKDHDGDYKDHDIDYKDDDDK
modifications: Fully synthetic
B1: the equilibrium dissociation constant (Kd) came to 0.74 ± 0.05 nM.
